Assay results from patent publication CN114773459A (UNIV SHENZHEN, dated 2022).

Biological target: 新型冠状病毒(SARS-CoV-2) S1蛋白 (野生型) (SARS-CoV-2, UniProt P0DTC2 16-685)

B1: 纳米抗体Nb-H6 (VHH)
VHH: QLVESGGGLVQAGDSLRLSCAASERALSSFHMGWFRQAPGKQRAFVAAIKWRDGTTYYADSVKGRFTISRDNAKNTVYLQMNSLEPEDTAVYYCYYRGRWGTYWGQGTQVTVSS
With B1 the IC50 was 9.8 µM.
